The data set in a line: soluble on expression in E. coli; label from the status in PepcDB or PDB records.
With “MSKIKRVLISVSDKTGIIEFAKELSKYNIEILSTGGTSKTLKDAGINVIDVSEHTQFPEIMNGRVKTLHPLIHGGILADRDNPEHLDAMLKNHIGQIDMVVVNLYPFVNTVKSGADFDTCIENIDIGGPSMVRSCAKNHKHTTIVTNPSQYDLVIKEMAENDGKTTLATRREFAKEAFAHTAEYDSHIANWFSKELDEEYPEKLFSVGTLKQVLRYGENPHQKAAVYSTDADCVSITNARQLQGKELSYNNLNDADGAFEMVCEYSEPSCAIIKHANPCGIASGKNAFEAWTKALACDPISAFGGIVAFNCEVDKEFAESLGKMFLEVIIAPSYTQEALDILAAKKNLRVLETGKVFDTKSSRMISKNIHGGILSQSYDNGGVDINDCKVVTDRAPTDKEWADLMFAWKAVKYVKSNAIVYARDTQTVGIGAGQMSRVDSARIGAEKAQAHQGAKGSAVASDAFFPFADGLEECIKAGATAVIQPGGSKNDQEVIDAANKAGITMVFTNMRHFRH”, the “soluble on expression in E. coli” value is reported as “not soluble”.

Consider “MSKKPTSAYVHIPFCTQICYYCDFSKVFIKNQPVDAYLEALIKEFNDYYQIKDLQTLYIGGGTPTAISGEQLDYLLTNLSKNLNLNMLEEFTIEANPGDLTPDKVAVLKQSAVNRVSLGVQTFNNKHLKQIGRGHNEAQIYESIDSLKSAGFDNISIDLIYALPNQTITDVKENVAKALALDIPHLSLYNLILEHHTVFMNKMRRGKLNLPAEDLEAEMFDYIISEMEDHGFEHYEISNFTKPGFESRHNLMYWNNAEYFGCGAGASGYVDGIRYRNRGPIQHYLKAIKEKRQARFQEERLSQSEKMEEELFLGLRKKSGISIQRFEDKFGLPLMEVYGQAIDDLEKDGLILVEKDCIRMSKKGLFLGDTVAEKFILEQK”, for which the “soluble on expression in E. coli” value was “not soluble”.

On to “MSKKVAILVDGDFFIRCYKSHLKKQPEDLNPKKLAHHIHTYCLKHINKKNDEELYRIFFYDCKPLKKKAHYPYTQKALDLSKSPTYREREELHEHLISKPCLALRLGYLDEKNARWVIRDQEKEKKLFNRRISIEEFQNDDFIYHAKQKGVDIKIGLDIATLALKKLVQKIVLISGDSDFVPASKLARVEGIIFTLDPMGNHIREDLKEHIDYLTTRLPQFKQQ”, for which the “soluble on expression in E. coli” value is “soluble”.

“MSKNDHRITHNKSDKDNLDDDFSLFRDEVKGVKKLRQDTILHAPNRNPKQKEIRRTEREASDNDFYFSDEFMPHLTDEGPTRYARSDVSKYEVKRLRRGVYVPDVFLDMHGMTQQEAKRELGAMIAYCLKENVHCACVQHGIGKHILKQNVPLWLAQHPDVLAFHQAPLEFGGDGALLVLLSIPEK”: the “soluble on expression in E. coli” value is recorded as “not soluble”.

Regarding “MSKVLVLKSSILAGYSQSGQLTDYFIEQWREKHVADEITVRDLAANPVPVLDGELVGAMRPGDAPLTPRQQDALALSDELIAELKAHDVIVIAAPMYNFNIPTQLKNYFDLIARAGITFRYTEKGPEGLVTGKRAVVLSSRGGIHKDTPTDLIAPYLKVFLGFIGITDVNFVFAEGIAYGPEVAAKAQADAKAAIDSVVAA”, the “soluble on expression in E. coli” value was “soluble”.

On to “MSKWLNVGKIVNTHGVRGEVRVLSTTDFEDDRFSSGKTLYVMRPNQNERVAVTVASHRKHKNFDLLCFEGYPSINDVEAFKGGRLQVPIEDRPELGEGEFFYHEIIGCSVVTIAGEELGKVKEILSPGANDVWVVQCRRGGKDLLIPYIEQVVKQVDLEKQQITIEPMEGLLEAAALEHHHHHH”, for which the “soluble on expression in E. coli” value is “soluble”.

“MSKYNAKKVEYKGIVFDSKVECEYYQYLESNMNGTNYDHIEIQPKFELLPKLDKQRKIEYIADFALYLDDKLIEVIDIKGMPTEVAKLKAKIFRHKYRNIKLNWICKAPKYTGKTWITYEELIKARRERKREMK”: the “soluble on expression in E. coli” value is given as “not soluble”.

For the sequence “MSLAAGKHTKHSNRVRIIGGQCRGRKLSFTSADGLRPTPDSVREKLFNWLGQDLTGKTVLDLFGGSGALGIEAASRNAKRVLISDNNRQTVQTLQKNSRELGLGQVQIVFSDGIAYLKTVSEQFDVVFLDPPFAWQDWQILFDALKPCLNPRAFVYLEAGTLPNIPDWLTEYREGKSGQSTFELRVFQVAEEGHHHHHH”, the “soluble on expression in E. coli” value is on record as “soluble”.

The values above are taken from the DeepSol protein solubility set.
